This assay addresses SARS-CoV-2 spike trimer (S trimer), soluble ectodomain (SARS-CoV-2), P0DTC2. In words: cryo-EM structure of Fab 2-4 with S trimer. Conditions: remark: other sources report otherwise.

B1: Fab of antibody 2-4 (Fab, V domains shown)
VH: QVQLVQSGAEVKKPGASVKVSCKASGYTFTGYYMHWVRQAPGQGLEWMGWINPNSGGTNYTQMFQGRVTMTRDTSISTAYMEVSRLRSDDTAVYYCARDRSWAVVYYYMDVWGKGTTVTVSS
VL: QSALTQPPSASGSPGQSVTISCTGTSSDVGGYNYVSWYQQHPGKAPKLMIYEVSKRPSGVPDRFSGSKSGNTASLTVSGLQAEDEADYYCSSYAGSNNLVFGGGTKLTVL
The molecule B1 showed a buried surface area of the epitope on RBD of 751 A2.

The values are drawn from patent US20230203138A1.
